System: MS2 coat protein
Test: apparent KD of MS2 coat protein; designed switch direction (-1 OFF switch, 1 ON switch): 1; higher = weaker reporter binding
Outline: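 Designed RNA switches with common flanks were made on Illumina chips by stalled E. coli RNA polymerase. Titration with SNAP-549-labelled MS2 coat protein doubled from 0.7 or 1.5 nM up to 3 µM. Apparent KD is each design's median over clusters after curve-fitting normalised fluorescence.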

[1] = input ligand: microRNA oligo, concentration not stated
[2] = Eterna round: R95, input ligand: microRNA oligo, concentration not stated
[3] = Eterna round: R95, input ligand: FMN 200 uM
[4] = Eterna round: R95, input ligand: none

| Sequence | apparent KD of MS2 coat protein (input ligand: FMN 200 uM) | apparent KD of MS2 coat protein [1] | apparent KD of MS2 coat protein (input ligand: none) | apparent KD of MS2 coat protein [2] | apparent KD of MS2 coat protein [3] | apparent KD of MS2 coat protein [4] |
| --- | --- | --- | --- | --- | --- | --- |
| GAGCCAGUCCGAGGAUAUUCAUAUUAACAUGAGGAUCACCCAUGUAGGCUCAGAAAGGAGCCUUGGGAGAAGGCGGACUGGCUC [Xeonanisa<<2] (Eterna round: R96, puzzle: Same State NG 2) | 14.9 nM | 114 nM | 251 nM |  |  |  |
| GAGCCAGUCCGAGGAUAUUCGUAGUACCACAUGAGGAUCACCCAUGUGGGCUCAGAAGAGCCCUUGGAGAAGGCGGGCUGGCUC [SS-NG2-LRO20] (Eterna round: R96, puzzle: Same State NG 2) | 9.67 nM | 5.99 nM | 12.4 nM |  |  |  |
| GAGCCAGUCCGAGGAUAUUCGUAUUAACACAUGAGGAUCACCCAUGUGGGCUCAGAAGAGCCCUGGGAGAAGGCGGGCUGGCUC [SS-NG2-LRO17] (Eterna round: R96, puzzle: Same State NG 2) | 11.8 nM | 30.9 nM | 48.4 nM |  |  |  |
| GAGGGACAGACCAACAUGAGGAUCACCCAUGUCCUCGCAGGUCAGGAUAUCAUGAGGAUCACCCAUGAGAAGGGACGGUGAACC (Eterna round: R96, puzzle: Same State NG 3) | 155 nM | 125 nM | 149 nM |  |  |  |
| GAGUGGUUGGGAGGAUAUGCAUUGUUAUUAAAUGCAGAAGGUUUUAACAUGAGGAUCACCCAUGUAGGACUAUUCCUGUGUUUC [Parity 68 - Jieux - Same State NG 1] (Eterna round: R96, puzzle: Same State NG 1) |  | 12.6 nM |  |  |  |  |
| GAGUUACAUGAGGAUCACCCAUGUUGUUGUGGAUAAGGAUAUAUGGUAGGAAGAGGAAUGAUAGAAGGUAUUAGGG [JR_SS1_Sub064] (puzzle: Same State 1) |  |  |  | 34.7 nM |  |  |
| GAUAAACAUGAGGAUCACCCAUGUAAUAAUAUGGGAGGAUAUCAGAAUGUAUGUAUGUAAUGAGAAGGCCUAAUAG [Mat - Same State 1 - Mod of Eli - D72] (puzzle: Same State 1) |  |  |  | 229 nM | 76.7 nM | 391 nM |
| GAUAAACAUGAGGAUCACCCAUGUGUGAAUAUGGGAGGAUAUACGUGGACCGUAGUCCGCGUAGAAGGCCUAAUUG [Mat - Same State 1 - Mod of JL - D20] (puzzle: Same State 1) |  |  |  | 166 nM |  |  |
| GAUUAACAUGAGGAUCACCCAUGUCGUUAAAUGGGAGGAUAUACGUGGACCGUAGUCCGCGUAGAAGGCCUAAUUG [Mat - Same State 1 - Mod of JL - D22] (puzzle: Same State 1) |  |  |  | 101 nM |  |  |
| GAUUAACAUGAGGAUCACCCAUGUGUGAAUAUGGGAGGAUAUACGUGGACCGUAGUCCGCGUAGAAGGCCUAAUUG [JL-ss1-3.20 janelle mod] (puzzle: Same State 1) |  |  |  | 223 nM |  |  |
| GCACUCCUAGGAGCUGCGACAUGAGGAUCACCCAUGUAAUCACAGGAUAUGCAAUUCUGAAUUUUGCAGAAGGGUGAUAGGAAA [Zausorbi] (Eterna round: R96, puzzle: Same State NG 3) | 413 nM | 270 nM | 263 nM |  |  |  |
| GCAGGACAUGAGGAUCACCCAUGUCUCAAAUAUUGAGGAUAUGGACACGGUAUAUCCGAACCAGAAGGCAACCUGC [SS1 Teenbexe 20] (Eterna round: R96, puzzle: Same State 1) | 38.9 nM | 31.5 nM | 43.7 nM |  |  |  |
| GCAGGACAUGAGGAUCACCCAUGUCUCAAAUAUUGAGGAUAUGGACACGGUAUAUCCGAACCAGAAGGCAACCUGC [SS1 Teenbexe 20] (puzzle: Same State 1) |  |  |  | 47.3 nM |  |  |
| GCAGGACGAUAAUAUAUCUCACAUGAGGAUCACCCAUGUCGUGAGGAUAUGGAUCCUAAUUGGAUCCAGAAGGCAUGGUCCUGC [Fiskers NG3ss - 31] (Eterna round: R96, puzzle: Same State NG 3) | 18.5 nM | 14.2 nM | 20.7 nM |  |  |  |
| GCAGGACGAUAAUAUAUCUUCACAUGAGGAUCACCCAUGUCUCAGGAUAUGGAUCCUAAUUGGAUCCAGAAGGGAGCGUCCUGC [Fiskers NG3ss - 33] (Eterna round: R96, puzzle: Same State NG 3) | 33.2 nM | 43.3 nM | 54.4 nM |  |  |  |
| GCAGUACUAGCAGAGGAUAUGUCGGUAACGACAUGAGGAUCACCCAUGUGUACGAAAGUGCUCAGACAGAAGGCUGAGUACUGCU [Same State 2 - Hyphema v.1] (puzzle: Same State 2) |  |  |  | 58.4 nM | 17.8 nM | 78.4 nM |
| GCCAACUAAUGAGGAUAUGGCACCUUAUUGGUGCCAGAAGGCAUGUCAAUUGACAUGAGGAUCACCCAUGUAUUAUAGUUGGCG [salish99_SSNG1_r04_601] (Eterna round: R96, puzzle: Same State NG 1) |  | 438 nM |  |  |  |  |
| GCCAACUCAUGAGGAUAUGGCACCUUAUUGGUGCCAGAAGGCAUGUCAAUUGACAUGAGGAUCACCCAUGUAUUAUAGUUGGCA [Fiskers NG1ss - 22] (Eterna round: R96, puzzle: Same State NG 1) | 62.5 nM | 267 nM | 489 nM |  |  |  |
| GCCAUCGAGUGAGGAUAUGGCACCGAAACGGUGCCAGAAGGCAUGUCAAUUGACAUGAGGAUCACCCAUGUAUUAUCGAUGGCA [Mat - Same State NG 1 - JL mod - D87] (Eterna round: R96, puzzle: Same State NG 1) | 154 nM | 726 nM | 1690 nM |  |  |  |
| GCCCAUAGUAUAUGGGUACAAGCUUUUUGACAUGAGGAUCACCCAUGUACUCGUCUUAUGUGCAGUCCGUAGACUGC [JL-shm-2.18 Brourd mod] (puzzle: Sensor for hsa-mir-208a) |  |  |  | 15.3 nM | 61.9 nM | 66.6 nM |
| GCCGCGUUUCGCGCCUACAUGAGGAUCACCCAUGUUUGUGGGCAGGAUAUCGUCCGCUCUGCGGGCGAGAAGGGCUGUUGUGGU [salish99_SSNG3_R04_026] (Eterna round: R96, puzzle: Same State NG 3) |  | 40.9 nM |  |  |  |  |
| GCCGCGUUUCGCGCCUACAUGAGGAUCACCCAUGUUUGUUGGCAGGAUAUCGUCCGCUCUGCGGGCGAGAAGGGCUGUUGUGGU [salish99_SSNG3_R04_025] (Eterna round: R96, puzzle: Same State NG 3) | 38.4 nM | 18 nM | 25.4 nM |  |  |  |
| GCCGGACCGGAAGGAUAUGUUCCCGGUGCAGCGGGAGACAUGAGGAUCACCCAUGUACUAUAACGACAGAAGGUCCAACCAGCG [Eternabot solution 21] (Eterna round: R96, puzzle: Same State NG 2) | 18.7 nM | 16.4 nM | 22.5 nM |  |  |  |
| GCCGGCUGAUGAGGAUAUGGCACCUUAUUGGUGCCAGAAGGCAUGUCAAUUGACAUGAGGAUCACCCAUGUAUUAUAGUUGGCG [salish99_SSNG1_r04_604] (Eterna round: R96, puzzle: Same State NG 1) | 117 nM | 233 nM | 326 nM |  |  |  |
